Our source for the percent of transfected cells showing colocalization values is PMC4615246.

Like-named read-outs stand apart in the source and are kept apart here.

Among the targets are LacI-CFP-Nup107 (human) (UniProt P57740); LacI-CFP-Nup133 (human) (UniProt Q8WUM0); LacI-CFP-Nup153 (human) (UniProt P49790); LacI-CFP-Nup50 (human) (UniProt Q9UKX7); LacI-CFP-Nup53 (human) (UniProt Q8NFH5); LacI-CFP-Nup58 (human) (UniProt Q9BVL2); LacI-CFP-Nup98 (human) (UniProt P52948); LacI-CFP-mNup85 (mouse) (UniProt Q8R480).
Holding throughout (assay): LacI/LacO array recruitment in cells
The target of assay [1] is LacI-CFP-sPom121 (human) (UniProt Q96HA1).
Assay [2] has as its target LacI-CFP-Nup214 (human) (UniProt P35658).
The target is the same in assay [3]. This is another data set of the same source.
The target of assay [4] is LacI-CFP-sPom121 (human) (UniProt Q96HA1). The source holds these as a separate data set.

Sequence of LacI-CFP-sPom121 (human) (Q96HA1 whole entry): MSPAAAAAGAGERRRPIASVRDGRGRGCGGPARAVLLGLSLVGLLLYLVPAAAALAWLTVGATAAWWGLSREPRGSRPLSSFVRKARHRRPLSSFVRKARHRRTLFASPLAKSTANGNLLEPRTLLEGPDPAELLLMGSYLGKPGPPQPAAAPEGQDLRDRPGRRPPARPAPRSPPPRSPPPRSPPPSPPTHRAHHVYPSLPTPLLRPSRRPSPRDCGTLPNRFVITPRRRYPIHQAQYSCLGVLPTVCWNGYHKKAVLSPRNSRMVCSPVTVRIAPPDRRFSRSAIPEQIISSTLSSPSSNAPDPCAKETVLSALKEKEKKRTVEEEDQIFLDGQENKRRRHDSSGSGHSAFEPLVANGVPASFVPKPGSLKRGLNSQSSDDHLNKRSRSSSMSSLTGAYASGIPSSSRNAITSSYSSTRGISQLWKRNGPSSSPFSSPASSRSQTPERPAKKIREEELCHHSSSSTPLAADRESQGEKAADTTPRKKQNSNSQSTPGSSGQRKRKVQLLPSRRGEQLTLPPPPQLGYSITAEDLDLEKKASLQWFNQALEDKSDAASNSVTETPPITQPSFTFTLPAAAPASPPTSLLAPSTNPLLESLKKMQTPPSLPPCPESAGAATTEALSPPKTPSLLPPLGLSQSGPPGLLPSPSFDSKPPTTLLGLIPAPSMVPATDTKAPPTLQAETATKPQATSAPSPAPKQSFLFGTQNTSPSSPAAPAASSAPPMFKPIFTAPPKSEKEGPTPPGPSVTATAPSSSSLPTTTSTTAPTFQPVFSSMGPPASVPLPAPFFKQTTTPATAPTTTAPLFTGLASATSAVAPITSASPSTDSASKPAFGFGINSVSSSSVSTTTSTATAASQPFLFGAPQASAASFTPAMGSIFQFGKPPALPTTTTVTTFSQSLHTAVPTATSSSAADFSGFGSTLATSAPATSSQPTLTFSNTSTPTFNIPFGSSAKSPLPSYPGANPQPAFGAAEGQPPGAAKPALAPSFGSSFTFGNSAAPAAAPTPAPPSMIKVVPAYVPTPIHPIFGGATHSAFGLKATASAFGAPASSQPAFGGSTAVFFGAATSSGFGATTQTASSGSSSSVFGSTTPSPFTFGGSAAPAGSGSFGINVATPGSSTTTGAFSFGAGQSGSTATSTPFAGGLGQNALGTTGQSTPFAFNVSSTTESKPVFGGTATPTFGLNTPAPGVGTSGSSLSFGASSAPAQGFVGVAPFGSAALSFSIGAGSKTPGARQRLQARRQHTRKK
Sequence of LacI-CFP-Nup214 (human) (P35658 whole entry): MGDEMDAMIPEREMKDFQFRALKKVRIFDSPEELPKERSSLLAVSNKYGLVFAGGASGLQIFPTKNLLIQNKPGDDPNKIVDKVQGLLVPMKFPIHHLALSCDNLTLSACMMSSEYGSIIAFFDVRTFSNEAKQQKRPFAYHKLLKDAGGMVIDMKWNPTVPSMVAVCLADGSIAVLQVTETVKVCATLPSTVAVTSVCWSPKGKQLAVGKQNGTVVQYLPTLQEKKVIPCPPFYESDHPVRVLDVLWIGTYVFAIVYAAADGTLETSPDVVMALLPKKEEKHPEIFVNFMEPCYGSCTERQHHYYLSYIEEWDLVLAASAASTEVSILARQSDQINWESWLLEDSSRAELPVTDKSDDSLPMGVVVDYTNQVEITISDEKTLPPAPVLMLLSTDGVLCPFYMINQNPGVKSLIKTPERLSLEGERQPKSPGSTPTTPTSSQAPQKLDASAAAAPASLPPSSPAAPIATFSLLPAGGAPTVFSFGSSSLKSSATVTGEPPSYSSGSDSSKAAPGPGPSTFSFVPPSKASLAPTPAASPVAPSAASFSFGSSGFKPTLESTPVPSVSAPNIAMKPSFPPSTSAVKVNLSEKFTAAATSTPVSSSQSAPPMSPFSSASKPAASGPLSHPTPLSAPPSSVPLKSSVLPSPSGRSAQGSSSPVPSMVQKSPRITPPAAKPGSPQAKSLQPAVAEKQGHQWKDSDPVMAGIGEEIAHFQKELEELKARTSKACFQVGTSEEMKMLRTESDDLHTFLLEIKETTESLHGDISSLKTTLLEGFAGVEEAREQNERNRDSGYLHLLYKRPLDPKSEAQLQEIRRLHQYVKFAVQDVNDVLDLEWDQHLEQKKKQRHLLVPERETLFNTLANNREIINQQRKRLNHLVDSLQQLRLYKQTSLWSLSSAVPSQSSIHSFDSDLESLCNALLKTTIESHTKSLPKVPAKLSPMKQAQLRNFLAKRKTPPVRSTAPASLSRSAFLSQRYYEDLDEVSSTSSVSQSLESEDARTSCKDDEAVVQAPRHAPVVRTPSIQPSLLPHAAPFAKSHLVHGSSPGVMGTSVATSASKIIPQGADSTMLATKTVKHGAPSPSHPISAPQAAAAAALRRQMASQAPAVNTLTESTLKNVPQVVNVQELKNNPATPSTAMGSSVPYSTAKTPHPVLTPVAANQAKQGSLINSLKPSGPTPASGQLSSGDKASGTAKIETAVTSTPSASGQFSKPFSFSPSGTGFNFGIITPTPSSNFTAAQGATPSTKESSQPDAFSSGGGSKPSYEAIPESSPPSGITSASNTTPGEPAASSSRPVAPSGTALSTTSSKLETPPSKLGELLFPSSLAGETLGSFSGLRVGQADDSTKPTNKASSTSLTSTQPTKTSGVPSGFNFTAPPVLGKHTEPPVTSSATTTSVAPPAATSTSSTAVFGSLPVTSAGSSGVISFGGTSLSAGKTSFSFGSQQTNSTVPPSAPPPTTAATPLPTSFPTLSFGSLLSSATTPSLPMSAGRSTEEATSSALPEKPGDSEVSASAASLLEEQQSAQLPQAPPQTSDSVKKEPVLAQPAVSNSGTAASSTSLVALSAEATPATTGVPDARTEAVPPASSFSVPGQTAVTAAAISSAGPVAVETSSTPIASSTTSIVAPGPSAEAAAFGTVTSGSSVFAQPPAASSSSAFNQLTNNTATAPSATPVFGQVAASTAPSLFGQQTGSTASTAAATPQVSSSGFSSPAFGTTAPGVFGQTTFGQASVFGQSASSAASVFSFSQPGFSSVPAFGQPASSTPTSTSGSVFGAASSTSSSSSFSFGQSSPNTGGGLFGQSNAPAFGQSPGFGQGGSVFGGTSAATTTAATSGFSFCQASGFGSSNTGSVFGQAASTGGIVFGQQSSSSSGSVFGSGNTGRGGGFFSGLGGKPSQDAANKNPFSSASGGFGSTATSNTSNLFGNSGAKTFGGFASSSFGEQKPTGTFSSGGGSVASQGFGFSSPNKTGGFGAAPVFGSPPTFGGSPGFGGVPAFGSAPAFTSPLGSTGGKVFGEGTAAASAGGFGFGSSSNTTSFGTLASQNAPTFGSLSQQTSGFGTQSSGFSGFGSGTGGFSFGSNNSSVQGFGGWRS
Sequence of LacI-CFP-Nup133 (human) (Q8WUM0 whole entry): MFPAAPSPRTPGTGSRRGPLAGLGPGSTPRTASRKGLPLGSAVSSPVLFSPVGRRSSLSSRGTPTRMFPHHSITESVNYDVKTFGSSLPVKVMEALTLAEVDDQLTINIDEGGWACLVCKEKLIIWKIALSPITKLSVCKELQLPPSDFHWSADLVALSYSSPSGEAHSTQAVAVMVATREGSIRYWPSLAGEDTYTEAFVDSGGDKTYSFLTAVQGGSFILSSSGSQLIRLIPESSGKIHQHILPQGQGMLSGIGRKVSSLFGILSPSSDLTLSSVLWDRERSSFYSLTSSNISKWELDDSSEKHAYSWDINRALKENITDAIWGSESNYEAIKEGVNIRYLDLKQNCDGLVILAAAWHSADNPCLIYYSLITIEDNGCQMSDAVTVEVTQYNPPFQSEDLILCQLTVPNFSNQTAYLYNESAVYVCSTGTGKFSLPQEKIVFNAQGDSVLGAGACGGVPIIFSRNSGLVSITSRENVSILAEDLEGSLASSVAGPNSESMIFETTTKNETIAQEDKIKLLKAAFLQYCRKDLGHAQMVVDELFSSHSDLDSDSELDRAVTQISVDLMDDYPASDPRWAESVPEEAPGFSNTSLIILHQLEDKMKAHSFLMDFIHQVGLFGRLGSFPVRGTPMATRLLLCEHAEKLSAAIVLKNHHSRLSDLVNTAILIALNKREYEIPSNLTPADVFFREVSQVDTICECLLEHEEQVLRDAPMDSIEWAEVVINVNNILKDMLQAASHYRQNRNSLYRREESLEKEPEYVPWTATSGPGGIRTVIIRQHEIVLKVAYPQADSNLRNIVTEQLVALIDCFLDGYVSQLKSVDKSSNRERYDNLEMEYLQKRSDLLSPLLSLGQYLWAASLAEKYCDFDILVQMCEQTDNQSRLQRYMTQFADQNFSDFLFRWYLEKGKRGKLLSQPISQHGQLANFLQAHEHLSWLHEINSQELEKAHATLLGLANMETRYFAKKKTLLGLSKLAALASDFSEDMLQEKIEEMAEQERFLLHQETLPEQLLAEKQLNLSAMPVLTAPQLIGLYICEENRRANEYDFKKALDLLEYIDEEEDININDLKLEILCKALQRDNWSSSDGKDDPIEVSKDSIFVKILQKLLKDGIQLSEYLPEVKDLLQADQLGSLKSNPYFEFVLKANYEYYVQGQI
Sequence of LacI-CFP-Nup58 (human) (Q9BVL2 whole entry): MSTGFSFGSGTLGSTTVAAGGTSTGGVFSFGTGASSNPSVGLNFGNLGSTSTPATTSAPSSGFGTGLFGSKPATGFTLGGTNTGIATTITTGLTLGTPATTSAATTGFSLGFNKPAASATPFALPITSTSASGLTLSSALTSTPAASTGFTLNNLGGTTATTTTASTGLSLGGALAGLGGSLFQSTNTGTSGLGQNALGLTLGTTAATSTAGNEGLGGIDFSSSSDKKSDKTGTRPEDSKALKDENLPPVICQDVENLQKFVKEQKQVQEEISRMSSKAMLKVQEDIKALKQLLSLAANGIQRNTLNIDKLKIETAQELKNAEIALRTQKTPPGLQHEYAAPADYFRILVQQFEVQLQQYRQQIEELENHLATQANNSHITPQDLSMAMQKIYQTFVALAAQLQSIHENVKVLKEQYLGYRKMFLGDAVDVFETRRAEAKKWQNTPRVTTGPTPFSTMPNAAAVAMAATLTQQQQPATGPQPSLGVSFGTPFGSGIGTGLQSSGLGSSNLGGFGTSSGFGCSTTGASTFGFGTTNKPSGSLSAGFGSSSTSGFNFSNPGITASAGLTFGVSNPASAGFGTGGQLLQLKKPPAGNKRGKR

Consider “ELYS (endogenous) (from UniProt Q8WYP5 1-2266) (natural protein)”, for which the percent of transfected cells showing colocalization with LacI-CFP-sPom121 (human) [1] is 14%.

With ELYS (endogenous), Q8WYP5 1-2266, the percent of transfected cells showing colocalization with LacI-CFP-Nup107 (human) is 72%; with LacI-CFP-Nup133 (human), 62%; in the assay with LacI-CFP-Nup153 (human), 65%; in the assay with LacI-CFP-Nup214 (human) [2] it was 40%; in the assay with LacI-CFP-Nup50 (human), 37%; in the assay with LacI-CFP-Nup53 (human), 34%. The percent of transfected cells showing colocalization with LacI-CFP-Nup58 (human) turned out to be 13%; with LacI-CFP-Nup98 (human), 16%; in the assay with LacI-CFP-mNup85 (mouse), 9%; with LacI-CFP-Nup214 (human) [3] it was 45%.

On to “Nup53 (endogenous) (from UniProt Q8NFH5 1-326) (natural protein)”, for which the percent of transfected cells showing colocalization with LacI-CFP-sPom121 (human) [1] was 2%.

For the substance “Nup62 (endogenous) (from UniProt P37198 1-522) (natural protein)”, the percent of transfected cells showing colocalization in the assay with LacI-CFP-sPom121 (human) [1] was 89%.

“Nup85 (endogenous) (from UniProt Q9BW27 1-656) (natural protein)” gave a percent of transfected cells showing colocalization with LacI-CFP-sPom121 (human) [1] of 7%.

Turning to “Nup93 (endogenous) (from UniProt Q8N1F7 1-819) (natural protein)”, the figures for the percent of transfected cells showing colocalization with LacI-CFP-sPom121 (human) [1] and in the assay with LacI-CFP-sPom121 (human) [4] were 68% and 71%, respectively.

For the substance “Nup98 (endogenous) (from UniProt P52948 1-880) (natural protein)”, the percent of transfected cells showing colocalization with LacI-CFP-sPom121 (human) [1] was 72%; in the assay with LacI-CFP-sPom121 (human) [4], 74%.

For “Nup133 (endogenous) (from UniProt Q8WUM0 1-1156) (natural protein)”, the percent of transfected cells showing colocalization with LacI-CFP-sPom121 (human) [1] came to 8%.

For “Nup214 (endogenous), P35658 1-2090 (natural protein)”, in the assay with LacI-CFP-Nup133 (human), the percent of transfected cells showing colocalization came to 23%.

In turn, “Nup214 (endogenous), P35658 1-2090 (natural protein; other documents disagree on this pair)” yielded a percent of transfected cells showing colocalization with LacI-CFP-Nup153 (human) of 6%.
